Values of other authors, collected in PMC3081175.

Target: c-Met (Homo sapiens) (UniProt P08581)
Sequence of UniProt P08581 (P08581 25-932): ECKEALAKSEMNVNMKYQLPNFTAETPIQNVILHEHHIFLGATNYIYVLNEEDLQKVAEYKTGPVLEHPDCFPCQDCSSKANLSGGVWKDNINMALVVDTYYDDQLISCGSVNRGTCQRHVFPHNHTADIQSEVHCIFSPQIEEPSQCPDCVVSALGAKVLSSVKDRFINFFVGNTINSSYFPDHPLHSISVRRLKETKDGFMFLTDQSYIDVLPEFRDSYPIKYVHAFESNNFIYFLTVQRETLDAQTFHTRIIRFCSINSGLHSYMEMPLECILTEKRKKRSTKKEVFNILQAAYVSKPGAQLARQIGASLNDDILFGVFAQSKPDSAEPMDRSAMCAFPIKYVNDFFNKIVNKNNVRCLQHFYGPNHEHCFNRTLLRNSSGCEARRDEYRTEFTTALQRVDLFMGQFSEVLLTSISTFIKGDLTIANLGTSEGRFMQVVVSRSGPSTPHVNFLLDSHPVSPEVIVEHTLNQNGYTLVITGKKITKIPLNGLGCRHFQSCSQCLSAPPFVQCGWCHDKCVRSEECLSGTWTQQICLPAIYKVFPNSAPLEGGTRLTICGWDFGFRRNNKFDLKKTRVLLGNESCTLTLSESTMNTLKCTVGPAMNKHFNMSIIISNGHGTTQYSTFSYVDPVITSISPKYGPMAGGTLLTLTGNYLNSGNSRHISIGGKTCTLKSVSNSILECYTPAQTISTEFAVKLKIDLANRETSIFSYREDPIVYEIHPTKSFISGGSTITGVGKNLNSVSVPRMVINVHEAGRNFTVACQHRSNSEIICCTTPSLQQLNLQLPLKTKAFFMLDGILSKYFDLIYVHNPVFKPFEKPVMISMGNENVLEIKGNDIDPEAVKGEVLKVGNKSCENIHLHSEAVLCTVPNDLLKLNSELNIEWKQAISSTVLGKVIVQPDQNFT

- Kd: 0.03 nM
Substance: HGF (from UniProt P14210)
